Molecular target: CLDN18.2 (species not stated)
Test: affinity measurement, method not described

Substance: IMAB362 (Zolbetuximab), positive control antibody
- Kd: 4.17 nM

Source: patent CN117567617A
